Target: T1, FLAG-2xStrep-PNO1 (UniProt Q9NRX1 1-252)
T1 construct: also called PNO1 bait protein
Assay: pull-down
Conditions: partners not purified

T1 sequence (Q9NRX1 whole entry): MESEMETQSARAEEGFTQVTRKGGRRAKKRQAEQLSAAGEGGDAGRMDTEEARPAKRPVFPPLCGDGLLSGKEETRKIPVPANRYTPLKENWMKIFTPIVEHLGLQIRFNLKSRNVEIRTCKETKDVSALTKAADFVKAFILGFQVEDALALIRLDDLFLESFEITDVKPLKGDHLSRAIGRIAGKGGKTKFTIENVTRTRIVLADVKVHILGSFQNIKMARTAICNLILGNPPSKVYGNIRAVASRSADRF

| Binder | fold increase of association during lytic replication over latency (densitometry of pulldown blots, normalised to PNO1) [fold] |
| --- | --- |
| BUD23 (natural protein, human (endogenous in TREx BCBL1-Rta), UniProt O43709 1-281, looked up) MASRGRRPEHGGPPELFYDETEARKYVRNSRMIDIQTRMAGRALELLYLPENKPCYLLDIGCGTGLSGSYLSDEGHYWVGLDISPAMLDEAVDREIEGDLLLGDMGQGIPFKPGTFDGCISISAVQWLCNANKKSENPAKRLYCFFASLFSVLVRGSRAVLQLYPENSEQLELITTQATKAGFSGGMVVDYPNSAKAKKFYLCLFSGPSTFIPEGLSENQDEVEPRESVFTNERFPLRMSRRGMVRKSRAWVLEKKERHRRQGREVRPDTQYTGRKRKPRF | 4.3 |
| NOC4L (natural protein, human (endogenous in TREx BCBL1-Rta), UniProt Q9BVI4 1-516, looked up) MEREPGAAGVRRALGRRLEAVLASRSEANAVFDILAVLQSEDQEEIQEAVRTCSRLFGALLERGELFVGQLPSEEMVMTGSQGATRKYKVWMRHRYHSCCNRLGELLGHPSFQVKELALSALLKFVQLEGAHPLEKSKWEGNYLFPRELFKLVVGGLLSPEEDQSLLLSQFREYLDYDDTRYHTMQAAVDAVARVTGQHPEVPPAFWNNAFTLLSAVSLPRREPTVSSFYVKRAELWDTWKVAHLKEHRRVFQAMWLSFLKHKLPLSLYKKVLLIVHDAILPQLAQPTLMIDFLTRACDLGGALSLLALNGLFILIHKHNLEYPDFYRKLYGLLDPSVFHVKYRARFFHLADLFLSSSHLPAYLVAAFAKRLARLALTAPPEALLMVLPFICNLLRRHPACRVLVHRPHGPELDADPYDPGEEDPAQSRALESSLWELQALQRHYHPEVSKAASVINQALSMPEVSIAPLLELTAYEIFERDLKKKGPEPVPLEFIPAQGLLGRPGELCAQHFTLS | 3.1 |

From paper PMC9849454, “Kaposi’s sarcoma-associated herpesvirus induces specialised ribosomes to efficiently translate viral lytic mRNAs” (Nature Communications, 2023)
